Reference: US10513702B2, “Synthetic hammerhead ribozymes with ligand-responsive tertiary interactions” (The Board of Trustees of the Leland Stanford Junior …, priority 2015, dated 2019)

Legend:
[1] = tested on: GFP reporter transcript (device in 3′ UTR; GFP/mCherry two-color reporter construct); experiment: Flow cytometry validation of reconstructed switch/ribozyme sequences in two-color reporter plasmid; format: cell-based, budding yeast strain W303a; settings: for μ (-tgt), median GFP/mCherry ratio (basal level): absence of target ligand, at least 3 independent transformants, ± standard error of the mean
Excerpt: The RNA devices were individually synthesized, integrated into the two-color characterization plasmid, and assayed in yeast via flow cytometry. The μ values obtained from flow cytometry analysis of the reconstructed sequences are tightly correlated with those obtained through the FACS-Seq analysis (FIG. 3a; R^2=0.98). We compared the validated activation ratios (μ−target/μ+target) for several of the best performing switches from the tertiary interaction switch libraries with those from previously optimized RNA devices that function through secondary structure rearrangements (FIG. 3b, Table 1).
Specific switch sequences were synthesized from overlapping oligonucleotides using overlap-extension PCR as described for the device library constructions. These were gap-repair transformed into the yeast two-color screening plasmid along with control plasmids by the lithium acetate/single-stranded carrier DNA/polyethylene glycol method, with each switch sequence verified using Sanger sequencing. At least three individual colonies were picked and inoculated in SC-URA media. Cultures were grown overnight, back-diluted 20:1 to an OD600˜0.07 and then grown 6 hrs in the absence and presence of a ligand target, at the same ligand concentrations as used for the FACS-Seq assays. The cells were then spun down and resuspended in an equal volume of 1×PBS buffer (Life Technologies) with 1% BSA (Fraction V, EMD Millipore) and a DAPI viability dye (Life Technologies). GFP was excited at 488 nm and measured with a bandpass filter of 525/50 nm. mCherry was excited at 561 nm and measured with a bandpass filter of 615/20 nm. DAPI was excited at 405 nm and measured with a bandpass filter of 450/50 nm. Prior to each use, voltages of fluorescence PMT detectors were calibrated with MACSQuant calibration beads to fix GFP and mCherry levels. For each culture, 10 μl of sample was analyzed, which captured 50,000-150,000 events while also providing cell density measurements. The data was analyzed using a custom MATLAB program to gate for mCherry expression above the no-color controls and non-saturating values for GFP and mCherry, and then extract μ, the median GFP/mCherry ratio. Since cultures that contain tetracycline produce non-specific fluorescence in the GFP emission region, the μ values for this condition were corrected by subtracting a fixed offset.
Note that the NGS data is based on cells sorted through a FACSAria II Cell Sorter. An in-house flow cytometer (Miltenyi Biotec MACSQuant VYB) was used for validation measurements. The GFP and mCherry levels are given in arbitrary fluorescence units that differ between the two instruments, but in all cases are treated as a linear function of the actual protein levels in order to compute μ. […]

[2] = tested on: GFP reporter transcript (device in 3′ UTR; GFP/mCherry two-color reporter construct); experiment: Flow cytometry dose-response assays on reconstructed theophylline-responsive RNA devices; format: cell-based, budding yeast strain W303a; settings: theophylline 0-20 mM; 4-parameter logistic fit, Hill slope 1.0; [80% confidence interval]
Description: Median GFP/mCherry ratios were computed for at least triplicate independent cultures assayed at theophylline concentrations of 0, 0.16, 0.31, 0.62, 1.25, 2.5, 5, 10, and 20 mM. The data were fit to a 4-parameter logistic model with the Hill slope fixed at 1.0; the 80% confidence interval for the EC50 fit is shown. A range of one standard deviation over the replicates is shown for the mean activity levels and activity ratio.

[3] = tested on: RNA device self-cleavage (ribozyme); experiment: In vitro SPR-based ribozyme cleavage assay; format: biochemical; settings: 500 μM MgCl2, 25° C.
Description: Representative FACS-Seq sort identified theophylline-responsive RNA device cleavage kinetics and ligand sensitivity were determined by surface plasmon resonance (SPR), using previously described protocols. Briefly, the RNA device DNA templates were amplified by PCR (PFU Ultrall HS; Agilent) with primers containing overhangs corresponding to the T7 RNAP promoter and cis-blocking sequences that prevent device cleavage during in vitro T7 transcription (Table 2; SPR templates). A second PCR (KAPA HiFi PCR Kit; Kapa Biosystems) with short primers was performed to enrich the product for full-length sequences (Table 2; SPR_fwd_primer, SPR_rev_primer). […]
SPR-based cleavage assays were performed at various theophylline concentrations to generate dose-response curves. The RNA dissociation rate constant (kd) at each theophylline concentration ([theo]) was fit to the sigmoidal equation kd=kd,min+(kd,max)/(1+[theo]/IC50) using MATLAB, where kd,max and kd,min are the maximum and minimum RNA dissociation rate constants, evaluated in absence of and with the highest theophylline concentration assayed, respectively. […]

Molecule: sTRSV: wild-type tobacco ringspot virus hammerhead ribozyme, SEQ ID NO: 7; loop I TGTGCTT, loop II GTGA (DNA GCUGUCACCGGAUGUGCUUUCCGGUCUGAUGAGUCCGUGAGGACGAAACAGC; listed as RNA, chemistry not fully specified) [reference compound]
- μ (-tgt), median GFP/mCherry ratio (basal level) [1]: 0.051±0.003

Molecule: sTRSVctl: inactive control ribozyme with scrambled catalytic core, SEQ ID NO: 8 (DNA GCUGUCACCGGAUGUGCUUUCCGGUACGUGAGGUCCGUGAGGACAGAACAGC; listed as RNA, chemistry not fully specified) [reference compound]
- μ (-tgt), median GFP/mCherry ratio (basal level) [1]: 5.8±0.3

B1: L2b8-t47: previously optimized secondary-structure switching theophylline-responsive RNA device, SEQ ID NO: 3 (nucleic acid)
DNA: AAACAAACAAAGCUGUCACCGGAUGUGCUUUCCGGUCUGAUGAGUCCGUUGAGUAUACCAGCAUCGUCUUGAUGCCCUUGGCAGACUGUAUACGGAGGACGAAACAGCAAAAAGAAAAAUAAAAA
modifications: listed as RNA, chemistry not fully specified
- Activation Ratio ([1]; 5 mM vs 0 mM theophylline, ± SEM): 2.8±0.3
- EC50 [2]: 5.7 mM

B2: L2b8-a1: previously optimized secondary-structure switching theophylline-responsive RNA device, SEQ ID NO: 2 (nucleic acid)
chain: AAACAAACAAAGCUGUCACCGGAAUCAAGGUCCGGUCUGAUGAGUCCGUUGUCCAUACCAGCAUCGUCUUGAUGCCCUUGGCAGGGACGGGACGGAGGACGAAACAGCAAAAAGAAAAAUAAAAA
modifications: listed as RNA, chemistry not fully specified
- μ (-tgt), median GFP/mCherry ratio (basal level) [1]: 0.109±0.004
- EC50 [2]: 10.4 mM
- kd, ribozyme cleavage (dissociation) rate constant ([3]; 1 mM theophylline): 0.00283 s⁻¹
- kd, ribozyme cleavage (dissociation) rate constant ([3]; absence of ligand (0 mM theophylline)): 0.01 s⁻¹

B3: L2b8: previously optimized secondary-structure switching theophylline-responsive RNA device, SEQ ID NO: 1 (nucleic acid)
DNA: AAACAAACAAAGCUGUCACCGGAUGUGCUUUCCGGUCUGAUGAGUCCGUUGUCCAUACCAGCAUCGUCUUGAUGCCCUUGGCAGGGACGGGACGGAGGACGAAACAGCAAAAAGAAAAAUAAAAA
modifications: listed as RNA, chemistry not fully specified
- EC50 [2]: 4.9 mM
